Paper PMC4963994, “Recombinant expression of Chlamydia trachomatis major outer membrane protein in E. Coli outer membrane as a substrate for vaccine research” (BMC Microbiology, 2016)

Molecular target: the molecule itself
Test: SDS-PAGE and western blot; purified MOMP in SDS loading buffer, all samples heated and reduced; NuPAGE gel; blot with anti-CtE EB mouse sera; SDS-resistant dimeric and oligomeric forms

B1: recombinant C. trachomatis Serovar E major outer membrane protein, expressed in the E. coli outer membrane with a PelB leader and purified (natural protein)
chain: LPVGNPAEPSLMIDGILWEGFGGDPCDPCTTWCDAISMRMGYYGDFVFDRVLKTDVNKEFQMGDKPTSTTGNATAPTTLTARENPAYGRHMQDAEMFTNAACMALNIWDRFDVFCTLGASSGYLKGNSASFNLVGLFGDNENQSTVKTNSVPNMSLDQSVVELYTDTAFSWSVGARAALWECGCATLGASFQYAQSKPKVEELNVLCNAAEFTINKPKGYVGQEFPLALIAGTDAATGTKDASIDYHEWQASLALSYRLNMFTPYIGVKWSRASFDADTIRIAQPKSATAIFDTTTLNPTIAGAGDVKASAEGQLGDTMQIVSLQLNKMKSRKSCGIAVGTTIVDADKYAVTVETRLIDERAAHVNAQFRF
notes: Major outer membrane protein (MOMP), C. trachomatis strain E/12-94 Serovar E, ORF O175_03780; also called rCtE-MOMP; rMOMP
binding result: binds
